Experimental data as given in the DeepSol protein solubility set.

experiment: soluble on expression in E. coli; label from the status in PepcDB or PDB records

Sequence | soluble on expression in E. coli
TDIVLWDKPGEKVLLLGNQAIVRGALEGNIGVYAAYPGTPSSEITDTMAMVAKKAGVYMEYSTNEKVAFETALSASWAGLRAMTAMKHVGLNVAMDSFMTVSYMGINGGLIVVVADDPSMWSSQNEQDTRAIAKFANIPVLEPSSVQEAKDMVKYAFEISEKYGQMVILRTTTRSSHMRGDVVLGELPQEIKEGKRKFGNFKKNPEKYVDIPAFQRPKHPWLLETIEKFREEFNTSPFNWIEGPEDAKVGIIAPGLSYAYVKEALAWLGIDNVKILKLGTPFPVPYGLLEKFFNGLERVLIVEELEPVVEEQVKVWAFDNNINIEIHGKDLVPRVYEMTTRRAVEAVAKFLGVETPINFQEIDEKYKKVQEMVPPRPPSLCPACPHRNTFFAIRKAATPRAIFPSDIGCYTLGVLPPLKTVDTTIAMGGSIGVAHGLSIALNGALGEEQRKTGKEKKIIVATIGDSTFFHTGLPALANAIYNRSNVLIVVMDNMVTAMTGDQPNPGTGETPHGPGKRILIEEVARAMGADFVAVVDPYDIKETYETIKKALEVEGVSVVVSRRACALYRIGQLRREGKQWPIYQVNEEKCTGCKICINAYGCPAIYWDAEK | not soluble
TDRVIMSIFTSDKLVDQSWGSLAYLAQLHVEKKFPVDIELYSEVDTIEKMEESLHASIDRKTELIIGHGREFSDIFTKVAPSYPTVRFVTIHGSATYENQTVYTFEKGKIELIAALAATMKSKTRKVALIDAYDGREDEPYFERGLEKYANDIEFFYYVVNSRHDGKQAKAVMDKLIKEGVDVVYSRGNAFNRDVIHYAKQHDIYVIGFLDDQSYLGEEHVLTSVLNDVTQAYVKI | not soluble
TGRVKWTLGGNIYLNRNKVDDISGNELLGTSYLAGGGVFSQSIHITKAGYPVGSFYGYVVDGVYQNEAEAKLAPFDTPQATPGSLRFKDISGPDGLPDGKITSDDMTIIGTAEPKFNYGINSELSWKGLTLSMIFTGRVGGDIANLNRYFLDSFTDTNDNIRAEAWEGRWQGEGTSNFYPAVNGSQGSSYFNKRFSTFLLEDGSFFRLKNLTLAYQFSLKKLRWLRSVRVFGTVTNVFTITNYSGYDPEVSITSGAMSPNVDYAAYPSSRTYSMGINLAF | not soluble
TIEARTAQSTPSAPPQKVMCVSMGSTTVRVSWVPPPADSRNGVITQYSVAYEAVDGEDRGRHVVDGISREHSSWDLVGLEKWTEYRVWVRAHTDVGPGPESSPVLVRTDEDVPSGPPRKVE | soluble
TLDEVKSLWDPRGISGTETASPQSDTPQAVSGASQPRWLRLSNGKQVDLRDWKVVLFMQGHCPYCHKFDPVLKQLAGQYGFSVFSYTIDGQGDDAFPEALPAPPDVMQTFFPNIPVATPTTFLVNVNTLAAYPILQGATDAQGFMARVDTVFQ | not soluble
TMLSFVTTDANIDHGHLQGALSAITNETFNRITVDGDTSTNDMVVVMASGLAENETLTPEHPDWANFYKALQLACEDLAKQIARDGEGATKLIEVEVTGAANDQEAGMVAKQIVGSDLVKTAIYGADANWGRIICAIGYSGCEVNQETIDIAIGPIVTLKQSEPTGFSEEEATAYLKEADPVKISVNLHIGNGTGKAWGCDLTYDYVRINAGYRT | soluble
TNAVNIVMRQPTTPNFSSALNITSANEGGSAMQIRGVEKALGTLKITHENPSVDKEYDENAAALSIDIVKKQKGGKGTAAQGIYINSTSGTAGKMLRIRNKNKDKFYVGPDGDFWSCASSIVDGNLTVKDPTSGKHAATKDYVDEKIAELKKLILKK | soluble
TNTEQFCTGCHEMRDNVYAELKGTIHYTNRSGVRAICSDCHVPHNWTDKIARKTQASKEVWGKIFGTINTREKFVEKRLELAQHEWARLKANDSLECRNCHNYESMDFTRQSMRAQNMHSTYLADKSKTCIDCHKGIAHTLPRMPPDQTSLAPPAAGPARADTGHAER | not soluble
TPLLKTEFFPQSDNGYIQIQAEYPVGTGVNLPRAFALRMIDSWEKEIPEIDRTSFSVGQAEASSMFAAMQDNGTNIITFHIGLTGRNERKRSMNEVADQIRTMLDDYPEIHSYKVTPGGSGGGMGGQPTVNLDIYGYDFNKTGDLAERFSRLMKEDARCAQATISRKDYVPEYQFVFDRTKLAENGLNSTTAAMFLRNRVNGRVASTYREEGDEYDIRVRLAPEFRRSLRDLENILIYTPQGKGVRLGELGKIEELYTPPTIERKDRQRVVIVASTAVKGAALSDLVEVAKEKIAQLEIPDGIDYKISGTYEDQQKTFAD | not soluble
TPMYESTSELYVLSKSTSITSLADIQTGTSLTNDYIVVVKGRPVLDQVIENLNLNESYKTLGGRVTLDNPSNSRVLNITVTDPDPQMAKTIADEIAKVASAYIAEKMKQDPPTIIQSGYDDGGAVSPNIGKNT | not soluble
TPTRFLVAFDGSATSRKTVEMVSRSPLLQGMQAHVLTAGSDAGEARQALQWAREQLAQGGFDAITHHAAERPADALAAYAGQHGIDMLVMGAYGHSRIRQLVLGSTTTEILSRVSLAVLILR | not soluble
TSALIERIDAIIVDLPTIRPHKLAMHTMQQQTLVVLRVRCSDGVEGIGEATTIGGLAYGYESPEGIKANIDAHLAPALIGLAADNINAAMLKLDALAKGNTFAKSGIESALLDAQGKRLGLPVSELLGGRVRDSLEVAWTLASGDTARDIAEARHMLEIRRHRVFKLKIGANPVEQNLKHVVTIKRELGDSASVRVDVNQYWDESQAIRACQVLGDNGIDLIEQPISRINRGGQVRLNQRTPAPIMADESIESVEDAFSLAADGAASIFALKIAKNGGPRAVLRTAQIAEAAGIGLYGGTMLEGSIGTLASAHAFLTLRQLTWGTELFGPLLLTEEIVNEPPQYRDFQLHIPRTPGLGLTLDEARLARFARR | soluble
TSITPSSQDICRICHCEGDDESPLITPCHCTGSLHFVHQACLQQWIKSSDTRCCELCKYEFIMETKL | soluble
TSLFAQEIRLSKRHEEIVSQRLMLLQQMENKLGDQHTEKASQLQTVETAFKRNLSLLKDIEAAEKSLQTRIHPLPRPEVVSLETRYWASV | soluble
TSLFTTADHYHTPLGPDGTPHAFFEALRDEAETTPIGWSEAYGGHWVVAGYKEIQAVIQNTKAFSNKGVTFPRYETGEFELMMAGQDDPVHKKYRQLVAKPFSPEATDLFTEQLRQSTNDLIDARIELGEGDAATWLANEIPARLTAILLGLPPEDGDTYRRWVWAITHVENPEEGAEIFAELVAHARTLIAERRTNPGNDIMSRVIMSKIDGESLSEDDLIGFFTILLLGGIDATARFLSSVFWRLAWDIELRRRLIAHPELIPNAVDELLRFYGPAMVGRLVTQEVTVGDITMKPGQTAMLWFPIASRDRSAFDSPDNIVIERTPNRHLSLGHGIHRCLGAHLIRVEARVAITEFLKRIPEFSLDPNKECEWLMGQVAGMLHVPIIFPKGKRLSE | soluble
TSTMTDTVFSNSSNRWMYPSDRPLQSNDKEQLQAGWSVHPGGQPDRQRKQEELTDEEKEIINRVIARAEKMEEMEQERIGRLVDRLENMRKNVAGDGVNRCILCGEQLGMLGSACVVCEDCKKNVCTKCGVETNNRLHSVWLCKICIEQREVWKRSGAWFFKGFPKQVLPQPMPIKKTKPQQPVSEPAAPEQPAPEPKHPARAPARGDSEDRRGPGQKTGPDPASAPGRGNYGPPVRRASEARMSSSSRDSESWDHSGGAGDSSRSPAGLRRANSVQASRPAPGSVQSPAPPQPGQPGTPGGSRPGPGPAGRFPDQKPEVAPSDPGTTAPPREERTGGVGGYPAVGAREDRMSHPSGPYSQASAAAPQPAAARQPPPPEEEEEEANSYDSDEATTLGALEFSLLYDQDNSSLQCTIIKAKGLKPMDSNGLADPYVKLHLLPGASKSNKLRTKTLRNTRNPIWNETLVYHGITDEDMQRKTLRISVCDEDKFGHNEFIGETRFSLKKLKPNQRKNFNICLERVIPMKRAGTTGSARGMALYEEEQVERVGDIEERGKILVSLMYSTQQGGLIVGIIRCVHLAAMDANGYSDPFVKLWLKPDMGKKAKHKTQIKKKTLNPEFNEEFFYDIKHSDLAKKSLDISVWDYDIGKSNDYIGGCQLGISAKGERLKHWYECLKNKDKKIERWHQLQNENHVSSD | soluble
TTEEKKEEFLATVIDSVGDGVIVIDLDGRIALMNPAAEEISGISRRQAVGHRFALVFHREAVLREMVGKTATSGMTISDHENIVIRKLKQLTPVSATTFPLMLPHGETTGTILVLRD | not soluble
TTFFGRETAFFNGTEKLGRKFSLPVVYMDVEKTGHDVFTGTIKLLHHPQDDSPEGSITEEYVRLMETTIRRDPSQWLWSHRRWKRPRLHNTRQL | not soluble
TTHFTVADRWGNVVSYTTTIEQLFGTGIMVPDYGVILNNELTDFDAIPGGANEVQPNKRPLSSMTPTILFKDDKPVLTVGSPGGATIISSVLQTILYHIEYGMELKAAVEEPRIYTNSMSSYRYEDGVPKDVLSKLNGMGHKFGTSPVDIGNVQSISIDHENGTFKGVADSSRNGAAIGINLKRKLEHHHHHH | soluble
TTLASIGKDIIEDADGIAMPHQWLEGNLPVSAKCTVCDKTCGSVLRLQDWRCLWCKAMVHTSCKESLLTKC | soluble
VAKPKKTQPAATAPRVDVFDAKGKPKTVDASALRIAFADGRSLLVSLPDTADGAITLVAEHADAATHAMLALRPEHHDSITLRIEAEPAAEAEDADDALAGAEMLTLDLTVQHGDALKAAARKALPKQKDIEAWIAPALFADAQLNVRFVDEEEGRTLNHTYRGKDYATNVLTFSYAETEDDPVAADIVLCCPVVEQEAKDQGKPLRAHYAHLIVHGALHAQGYDHEDPAQAEEMEGIETEVLAGLGFPDPYADR | soluble
VALTVYYPPRVVSLEEPELRLEHCIEFVVRGNPPPTLHWLHNGQPLRESKIIHVEYYQEGEISEGCLLFNKPTHYNNGNYTLIAKNPLGTANQTINGHFLKEPFPVDEVSPTPPITVT | soluble
VAPLGLSVPSDVELPPTAKMHAIIERTASFVCRQGAQFEIMLKAKQARNSQFDFLRFDHYLNPYYKFIQKAMKEGRYTVLAENKSDEKKKSGVS | soluble
VCQILEVDRSTYHYKSRRPGQASLESKIKEICQTRVRYGYRRVHVLLRREGWLINQKKTRRIYRELGLQLRNKTPKRRVRAKLRDDRRDATHPNETWAMDFVHDQLATGNKIRVLTVVDLFSRYSPVLDPRFSYRAENVVQTLEHTWAAVGYPKTIRVDQGSEFISRELDLWAYSNGVTLDFSRPGKPTDNAFIEAFNGRFRAECLNTHWFLTLDDARSKLEDWRRYYNEQRPHGAIGNRPPITLHNRDSDPSSPS | soluble
VDREQLVQKARLAEQAERYDDMAAAMKNVTELNEPLSNEERNLLSVAYKNVVGARRSSWRVISSIEQKTSADGNEKKIEMVRAYREKIEKELEAVCQDVLSLLDNYLIKNCSETQYESKVFYLKMKGDYYRYLAEVATGEKRATVVESSEKAYSEAHEISKEHMQPTHPIRLGLALNYSVFYYEIQNAPEQACHLAKTAFDDAIAELDTLNEDSYKDSTLIMQLLRDNLTLWTSDQQDDDGGEGNN | soluble
VERMYDVTPPGVVMGLAWTAMGGSTLFVETSLRRPQDKDAKGDKDGSLEVTGQLGEVMKESARIAYTFARAFLMQHAPANDYLVTSHIHLHVPEGATPKDGPSAGCTIVTALLSLAMGRPVRQNLAMTGEVSLTGKILPVGGIKEKTIAAKRAGVTCIVLPAENKKDFYDLAAFITEGLEVHFVEHYREIFDIAFPDEQAEALAVER | soluble
